This note sets out measurements from US20260008818A1, “CYCLIC PEPTIDE OR SALT THEREOF, AND USES THEREOF” (FUJIFILM Corporation, priority 2023, published 2026).

Bridge positions count the residues as written; N and C are the ends. Square brackets hold non-standard residues; d marks the D form. Ends that are not written are not given here. hCys = N[C@@H](CCS)C(=O)O; Orn = NCCC[C@H](N)C(=O)O

Data set [1] concerns Recombinant Human FGFR 1 alpha (IIIc) Fc Chimera Protein. Briefly: Binding affinity of chemically synthesized cyclic peptide to immobilized FGFR by SPR. Conditions: 10 nmol/L cyclic peptide, 25° C., binding amount per one molecule of FGFR, chemically synthesized product. The procedure:
The binding affinity of the cyclic peptide to FGFR was evaluated using a surface plasmon resonance (SPR) method.
A CM5 sensor chip (Cytiva, 29149603) was set in Biacore-T200 (manufactured by Cytiva) which is a surface plasmon resonance device, and an HBS-EP buffer (Cytiva, BR100826) was added as a running buffer at a flow rate of 10 μL/min to equilibrate the flow channel. Next, 70 μL of a mixed aqueous solution of 0.2 mol/L 1-(3-dimethylaminopropyl)-3-ethylcarbodiimide (EDC) and 0.05 mol/L N-hydroxysuccinimide (NHS) was added to activate the sensor chip. Then, Recombinant Human FGFR 1 alpha (IIIc) Fc Chimera Protein CF (R&D systems, 658-FR-050) prepared at 50 nmol/L in an Acetate 4.5 buffer (Cytiva, BR100350) was added thereto to perform immobilization at about 5000 RU. Thereafter, the blocking treatment was performed with an ethanolamine solution. In addition, in another flow channel of the same sensor chip, blocking treatment was performed immediately after activation without immobilizing FGFR.
A cyclic peptide diluted to 10 nmol/L using HBS-EP was added to each flow channel of the FGFR-immobilized sensor chip produced above at 25° C. for 10 minutes, then HBS-EP was allowed to flow as a running buffer for 30 minutes, and the binding of the cyclic peptide to FGFR was measured. Thereafter, a regeneration treatment of removing the bound cyclic peptide was performed by repeating the flow of a regeneration liquid in which sodium chloride powder was dissolved in Glysine 1.5 (Cytiva, BR100354) to a final concentration of 0.15 mol/L for 1 minute in each flow channel twice. The binding amount of the cyclic peptide was evaluated from the difference between the measured value of Biacore-T200 in the flow channel in which FGFR was immobilized and the measured value of Biacore-T200 in the flow channel in which FGFR was not immobilated, in a case where a 10 nmol/L cyclic peptide was allowed to flow.
The binding amount of the cyclic peptide evaluated above was normalized to the binding amount of the cyclic peptide molecules per one molecule of FGFR using the molecular weights of the cyclic peptide and FGFR, and the binding affinity to FGFR was evaluated according to the following evaluation criteria. The evaluation result preferably satisfies the evaluation criteria A, B, or C.
• A: The binding amount is 0.7 molecules of the cyclic peptide/one molecule of FGFR or more. • B: The binding amount is 0.5 molecules of the cyclic peptide/one molecule of FGFR or more and less than 0.7 molecules of cyclic peptide/one molecule of FGFR. • C: The binding amount is 0.1 molecules of cyclic peptide/one molecule of FGFR or more and less than 0.5 molecules of cyclic peptide/one molecule of FGFR. • D: The binding amount is less than 0.1 molecules of the cyclic peptide/one molecule of FGFR.
A general note: In SPR one partner is held on a chip, and binding of the other changes the refractive index at the surface.

A short description of data set [2]: Molecular stability of cyclic peptide after reducing agent (DTT) treatment, LC. It is filed as physicochemical. Conditions: residual rate after 12.6 mmol/L DTT aqueous solution, room temperature, 1 hour. The procedure:
The molecular stability of the cyclic peptide was evaluated by analyzing an aqueous solution of the cyclic peptide treated with a reducing agent by liquid chromatography (LC).
The reducing agent treatment was performed under the following conditions based on the concentration of glutathione contained in the cells. 25 μL of a 0.2 mg/mL cyclic peptide aqueous solution was prepared, 58.8 μL of a 12.6 mmol/L DTT aqueous solution was added to the aqueous solution, and the mixture was incubated at room temperature for 1 hour to obtain an aqueous solution of the cyclic peptide treated with a reducing agent. The DTT aqueous solution was used by diluting a 1 mol/L (+-)-dithiothreitol (DTT) solution (FUJIFILM Wako Pure Chemical Corporation, 044-33871) with water. The total area of all the peaks in LC/MS of the cyclic peptide before the reducing agent treatment was set to 100%, and the proportion of the total area of all the peaks in LC/MS of the aqueous solution of the cyclic peptide treated with the reducing agent was determined to calculate the residual rate of the cyclic peptide, and the molecular stability was evaluated according to the following evaluation criteria. The evaluation result preferably satisfies the evaluation criteria A, B, or C.
• A: The residual rate of cyclic peptide is 90% or more. • B: The residual rate of the cyclic peptide is 70% or more and less than 90% • C: The residual rate of the cyclic peptide is 50% or more and less than 70% • D: The residual rate of the cyclic peptide is less than 50%
The LC used for the evaluation of molecular stability was set to the following conditions. • LC device: Prominence series (pump, column oven, autosampler, detector) (manufactured by Shimadzu Corporation) • Detector: photodiode array detector (SPD-M20A), measurement wavelength of 280 nm • Column: TSKgel ODS-100V, inner diameter of 4.6 mm×length of 150 mm, particle diameter of 5 μm (manufactured by Tosoh Corporation) • Eluent A: solution containing 0.1% trifluoroacetic acid as solute, and solvent is 100% water • Eluent B: solution containing 0.1% trifluoroacetic acid as solute, and solvent is 100% acetonitrile • Flow rate: 1.0 mL/min • Injection amount: 25 μL • Gradient: 20% to 50%: Eluent B (0 to 15 minutes), 100%: Eluent B (15 minutes) • Column temperature: 40° C.

Consider “390 ([Orn]SYERLIFHGHEAPFWV[hCys]VKKK; bridge 1-18; not fully specified (residue 1, bridges); printed as (Orn(acetyl))-SYERLIFHGHEAPFWV-(Hcy)-VKKK) [compound 390]”, for which the “Evaluation result of binding affinity to FGFR” value (from here on “Evaluation result … to FGFR”) in data set [1] is “C (The binding amount is 0.1 molecules of cyclic peptide/one molecule of FGFR or more and less than 0.5 molecules of cyclic peptide/one molecule of FGFR.)”. Besides, in data set [2], the “Evaluation result of reductive stability” value is on record as “A (The residual rate of cyclic peptide is 90% or more.)”.
Turning to “385 ([Orn]SYERLIFHGHEAPFWV[hCys]KKK; bridge 1-18; not fully specified (residue 1, bridges); printed as (Orn(acetyl))-SYERLIFHGHEAPFWV-(Hcy)-KKK) [compound 385]”, the “Evaluation result … to FGFR” value in data set [1] is “C (The binding amount is 0.1 molecules of cyclic peptide/one molecule of FGFR or more and less than 0.5 molecules of cyclic peptide/one molecule of FGFR.)”. Further, in data set [2], the “Evaluation result of reductive stability” value is “A (The residual rate of cyclic peptide is 90% or more.)”.
For “383 (HCSYERLQFHGHEAPFRVCVKKK; disulfide 2-19) [compound 383]”, the “Evaluation result of reductive stability” value in data set [2] is reported as “D (The residual rate of the cyclic peptide is less than 50%)”.
Turning to “380 (HXSYERLQFHGHEAPFRVXVKKK; not fully specified; Description of Artificial Sequence: Cyclic peptide) [compound 380]”, the “Evaluation result … to FGFR” value in data set [1] is “A (The binding amount is 0.7 molecules of the cyclic peptide/one molecule of FGFR or more.)”. Moreover, the “Evaluation result of reductive stability” value in data set [2] is listed as “A (The residual rate of cyclic peptide is 90% or more.)”.
For “384 (H[Orn]SYERLIFHGHEAPFWV[hCys]VKKK; bridge 2-19; not fully specified (residue 2, bridges); printed as H-(Orn(acetyl))-SYERLIFHGHEAPFWV-(Hcy)-VKKK) [compound 384]”, in data set [1], the “Evaluation result … to FGFR” value is on record as “A (The binding amount is 0.7 molecules of the cyclic peptide/one molecule of FGFR or more.)”. Moreover, in data set [2], the “Evaluation result of reductive stability” value was “B (The residual rate of the cyclic peptide is 70% or more and less than 90%)”.
As for “379 (HXSYERLQFHGHEAPFRVXVKKK; not fully specified; Description of Artificial Sequence: Cyclic peptide) [compound 379]”, the “Evaluation result … to FGFR” value in data set [1] is “A (The binding amount is 0.7 molecules of the cyclic peptide/one molecule of FGFR or more.)”. Also, the “Evaluation result of reductive stability” value in data set [2] is on record as “A (The residual rate of cyclic peptide is 90% or more.)”.
Consider “386 ({CH2CO}-HASYERLIFHGHEAPFWVCVKKK; thioether N-19 (inferred)) [compound 386]”, for which, in data set [1], the “Evaluation result … to FGFR” value was “B (The binding amount is 0.5 molecules of the cyclic peptide/one molecule of FGFR or more and less than 0.7 molecules of cyclic peptide/one molecule of FGFR.)”. Further, the “Evaluation result of reductive stability” value in data set [2] is recorded as “A (The residual rate of cyclic peptide is 90% or more.)”.
In the case of “375 (HXSYERLQFHGHEAPFRVXVKKK; not fully specified; Description of Artificial Sequence: Cyclic peptide) [compound 375]”, the “Evaluation result … to FGFR” value in data set [1] was “A (The binding amount is 0.7 molecules of the cyclic peptide/one molecule of FGFR or more.)”. In addition, the “Evaluation result of reductive stability” value in data set [2] is recorded as “A (The residual rate of cyclic peptide is 90% or more.)”.
Taken in the same sequence, the figures for “377 (HXSYERLQFHGHEAPFRVXVKKK; not fully specified; Description of Artificial Sequence: Cyclic peptide) [compound 377]” were “A (The binding amount is 0.7 molecules of the cyclic peptide/one molecule of FGFR or more.)” and “A (The residual rate of cyclic peptide is 90% or more.)”.
